Data on one molecule can be found in paper PMC3897609, “Heparanase Interacts with Resistin and Augments Its Activity” (PLoS ONE, 2014).

In this assay the target is T1, cMyc-tagged 65-kDa latent heparanase (human, UniProt Q9Y251 36-543).
T1 construct: heparanase, human, 65-kDa latent (unprocessed) form; also called cMyc-latent heparanase; latent cMyc-heparanase; source: medium conditioned by heparanase infected CHO cells, purified (heparin column)
T1 sequence (looked up): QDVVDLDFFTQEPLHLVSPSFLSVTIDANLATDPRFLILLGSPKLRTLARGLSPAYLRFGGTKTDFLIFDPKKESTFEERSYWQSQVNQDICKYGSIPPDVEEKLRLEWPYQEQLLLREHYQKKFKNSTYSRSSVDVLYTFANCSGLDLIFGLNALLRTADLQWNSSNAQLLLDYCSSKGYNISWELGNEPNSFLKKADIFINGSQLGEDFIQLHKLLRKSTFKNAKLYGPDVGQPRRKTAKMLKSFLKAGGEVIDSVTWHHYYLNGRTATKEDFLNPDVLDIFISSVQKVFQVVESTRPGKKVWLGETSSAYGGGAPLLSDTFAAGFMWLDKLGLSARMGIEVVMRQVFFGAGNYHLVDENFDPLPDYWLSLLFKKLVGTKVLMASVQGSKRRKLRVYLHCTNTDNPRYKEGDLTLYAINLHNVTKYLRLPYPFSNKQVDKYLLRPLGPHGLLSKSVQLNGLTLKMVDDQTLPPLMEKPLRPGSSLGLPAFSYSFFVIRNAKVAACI
Description: ELISA; competition: cMyc latent heparanase as coating layer; analyte resistin (200 ng/ml) preincubated 30 min at RT with the competitor (active heparanase, or leptin as control); bound resistin detected by anti resistin antibodies. Particulars: both partners purified.

B1: human recombinant resistin expressed in HEK 293 (natural protein, UniProt Q9HD89 19-108, looked up)
chain: KTLCSMEEAINERIQEVAGSLIFRAISSIGLECQSVTSRGDLATCPRGFAVTGCTCGSACGSWDVRAETTCHCQCAGMDWTGARCCRVQP
notes: resistin, human, recombinant; Runs as a 12 kDa band under reducing conditions; also called RETN; source: HEK 293, pure preparation, gift from Serono
As for B1, the binding result is on record as “binds”.
